Assay results published in patent US20220177596A1 (Bristol-Myers Squibb, published 2022).
Values joined by “and” are separate entries in the source; they are usually repeats but may differ in a detail not shown here. Identical values can stand only once.

Columns and labels:
human-CD40 monomer [1] = target: T1, human-CD40 monomer (human, UniProt P25942 21-193, limits assumed); test: SPR, Ab captured on protein A, CD40 monomer analyte
T1 construct: also called hCD40-monomer; human-CD40-monomer protein
T1 sequence (P25942 21-193 limits assumed): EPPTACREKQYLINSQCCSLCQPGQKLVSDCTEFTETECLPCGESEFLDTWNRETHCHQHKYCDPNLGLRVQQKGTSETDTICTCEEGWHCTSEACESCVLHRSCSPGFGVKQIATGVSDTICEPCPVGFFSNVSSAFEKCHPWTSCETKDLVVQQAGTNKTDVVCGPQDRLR

hCD64-His = target: T2, hCD64-His (human, UniProt P12314 16-288, limits assumed); test: SPR (BIAcore): 7 µg/ml hCD64-His captured on an anti-His Fab surface, 1 µM antibody as analyte
T2 construct: Generated in house; captured on anti-His Fab; also called hFcgRI; FcgRI
T2 sequence (P12314 other isoform, or with tags, fused parts or gaps limits assumed): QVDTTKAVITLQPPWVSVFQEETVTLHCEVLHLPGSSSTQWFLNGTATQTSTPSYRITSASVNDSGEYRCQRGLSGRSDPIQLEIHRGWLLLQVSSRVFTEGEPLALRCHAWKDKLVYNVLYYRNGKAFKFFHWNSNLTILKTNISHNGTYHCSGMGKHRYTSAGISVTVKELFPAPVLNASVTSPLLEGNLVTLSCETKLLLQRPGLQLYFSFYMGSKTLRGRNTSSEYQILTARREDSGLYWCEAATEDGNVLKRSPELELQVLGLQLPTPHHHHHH
Method: FCGR BINDING SPR: FcgR binding can be measured in vitro using purified FcgRs using methods such as BIAcore™ surface plasmon resonance (SPR). One method tests the binding of purified antibodies to His-tagged FcgR proteins (FcgR-His) which are captured on the immobilized Fab fragment of an anti-His antibody. These experiments are performed on either a BIAcore™ T100 or BIAcore™ T200 instrument (GE Healthcare Life Sciences, Marlborough, Mass.) at 25° C. The Fab fragment from a murine anti-6×His antibody (generated in house) is immobilized on a CMS sensor chip using standard ethyl(dimethylaminopropyl) carbodiimide (EDC)/N-hydroxysuccinimide (NHS) chemistry with ethanolamine blocking, to a density of ˜3000 RU in a running buffer of 10 mM HEPES pH 7.4, 150 mM NaCl, 3 mM EDTA, 0.05% surfactant p20 (HBS-EP+). All remaining studies are performed using a running buffer of 10 mM NaPO4, 130 mM NaCl, 0.05% p20 (PBS-T) pH 7.1. Various FcγR proteins containing a C-terminal 6× poly-histidine tag (generated in house) are captured on this surface (typically using FcgR-his protein concentration of ˜7 μg/ml) using a contact time of 30 sec at 10 μl/min. Various concentrations of purified antibody are tested for binding, for example using an association time of 120 seconds at 30 μl/min, and a dissociation time of 120 seconds at 30 μl/min. FcgR proteins tested in these studies include the “high affinity” FcgR CD64 (hFcgRI), as well as the “low affinity” FcgRs CD32a-H131 (FcgRIIa-H131), CD32a-R131 (FcgRIIa-R131), CD32b (FcgRIIb), CD16a-V158 (FcgRIIIa-V158), and CD16b-NA2 (FcgRIIIb-NA2).

[2] = target: human CD40 on primary human cells (tonsillar B cells, immature dendritic cells) (human, UniProt P25942 21-277); test: cell-based or functional assay
Chain of human CD40 on primary human cells (tonsillar B cells, immature dendritic cells) (P25942 21-277 limits assumed): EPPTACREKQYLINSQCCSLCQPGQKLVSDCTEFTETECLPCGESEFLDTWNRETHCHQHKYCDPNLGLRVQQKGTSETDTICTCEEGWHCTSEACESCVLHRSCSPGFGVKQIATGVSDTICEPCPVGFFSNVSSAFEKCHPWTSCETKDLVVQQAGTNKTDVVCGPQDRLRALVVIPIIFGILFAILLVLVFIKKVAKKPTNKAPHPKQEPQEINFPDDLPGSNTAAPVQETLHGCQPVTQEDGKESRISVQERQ

human-CD40 monomer [3] = target: T1, human-CD40 monomer; test: SPR, Ab captured on protein A, CD40 monomer analyte; remark: listed apart in the source
Text: Based on the supernatant screening SPR data and bias towards constructs with fewer framework back-mutations, a subset of humanized Y1238 antibodies were selected for expression, purification, and further characterization. Two of these antibodies (i.e., Y1238-hz1 and Y1238-hz2) were formatted with P238K and N297A isotypes (i.e., SEQ ID NOS: 39, 40, 42, and 43 for heavy chains; see TABLE 15 for light chains) and tested for CD40 and FcgR binding by SPR. […] The Fc domain is underlined.

human-CD40 monomer [4] = target: T1, human-CD40 monomer; test: as above; remark: listed apart in the source
Method: These chimeric antibodies were tested for CD40 and FcgR binding by SPR, as well as for iDC activation.

human-CD40 monomer [5] = target: T1, human-CD40 monomer; test: SPR 2 pt screen, Ab on protein A
Method: (§1) The VH sequences were formatted in the context of an IgG1.3f isotype. The Vκ sequences were formatted as a full light chain with a common CL sequence. All 55 combinations of these humanized HC and LC constructs, as well as the chimeric Y1238 molecule were expressed as 3 ml supernatants for binding analysis by SPR. Each of the 56 supernatants, as well as a purified Y1238-chimeric IgG1 antibody, was captured on a protein A sensor chip and tested for binding to two concentrations (i.e., 200 nM and 1000 nM) of hCD40-monomer using BIAcore™ SPR in a screening assay. All antibodies, except for those containing hz-HC3, captured at high levels (>300 RU) using a 100-fold dilution of the expression supernatant, indicating a high antibody titer in the supernatant except for the hz-HC3 samples. The kinetic data for the two concentrations of hCD40-monomer were fit to a 1:1 Langmuir model, to yield estimates of the kinetic and affinity values for these interactions, and for comparison of the different molecules. […] Also, for a given heavy chain, the antibodies with light chains hz-LC1 or hz-LC2 had higher CD40 affinity than those with hz-LC3, hz-LC4 or hz-LC5.

human-CD40 monomer [6] = target: T1, human-CD40 monomer; test: SPR full kinetics, Ab on protein A
Method: as §1, with “Each of the 56 supernatants, as well as a purified Y1238-chimeric IgG1 antibody, was captured on a protein A sensor chip and tested for binding to two concentrations (i.e., 200 nM and 1000 nM) of hCD40-monomer using BIAcore™ SPR in a screening assay.” left out

B1: 5F11-45-CTza (antibody, human IgG1, kappa)
heavy: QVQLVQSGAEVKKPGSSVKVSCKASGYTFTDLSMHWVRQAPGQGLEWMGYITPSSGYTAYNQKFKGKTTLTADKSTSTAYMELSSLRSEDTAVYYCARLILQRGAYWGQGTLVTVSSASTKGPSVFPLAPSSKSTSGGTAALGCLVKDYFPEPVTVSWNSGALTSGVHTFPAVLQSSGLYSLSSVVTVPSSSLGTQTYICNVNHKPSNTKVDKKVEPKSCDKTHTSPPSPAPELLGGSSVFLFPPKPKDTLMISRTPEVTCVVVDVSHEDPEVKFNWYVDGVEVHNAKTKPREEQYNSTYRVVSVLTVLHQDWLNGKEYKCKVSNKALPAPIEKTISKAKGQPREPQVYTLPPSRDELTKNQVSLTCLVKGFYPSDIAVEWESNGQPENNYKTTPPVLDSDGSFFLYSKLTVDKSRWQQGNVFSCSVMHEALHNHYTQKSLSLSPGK
light: DIVLTQSPDSLAVSLGERATINCRASKNVDSYGNSFMHWYQQKPGQPPKLLIYRASNLESGVPDRFSGSGSGTDFTLTISSLQAEDVAVYYCQQSNEDPLTFGQGTKLEIKRTVAAPSVFIFPPSDEQLKSGTASVVCLLNNFYPREAKVQWKVDNALQSGNSQESVTEQDSKDSTYSLSSTLTLSKADYEKHKVYACEVTHQGLSSPVTKSFNRGEC
Kd (human-CD40 monomer [1]): 1.6 nM | koff (human-CD40 monomer [1]): 0.00014 s⁻¹ | kon (human-CD40 monomer [1]): 88000 M⁻¹ s⁻¹ | binding result (hCD64-His): binds

B2: 5F11-45-N297A (antibody, human IgG1, kappa, N297A)
heavy: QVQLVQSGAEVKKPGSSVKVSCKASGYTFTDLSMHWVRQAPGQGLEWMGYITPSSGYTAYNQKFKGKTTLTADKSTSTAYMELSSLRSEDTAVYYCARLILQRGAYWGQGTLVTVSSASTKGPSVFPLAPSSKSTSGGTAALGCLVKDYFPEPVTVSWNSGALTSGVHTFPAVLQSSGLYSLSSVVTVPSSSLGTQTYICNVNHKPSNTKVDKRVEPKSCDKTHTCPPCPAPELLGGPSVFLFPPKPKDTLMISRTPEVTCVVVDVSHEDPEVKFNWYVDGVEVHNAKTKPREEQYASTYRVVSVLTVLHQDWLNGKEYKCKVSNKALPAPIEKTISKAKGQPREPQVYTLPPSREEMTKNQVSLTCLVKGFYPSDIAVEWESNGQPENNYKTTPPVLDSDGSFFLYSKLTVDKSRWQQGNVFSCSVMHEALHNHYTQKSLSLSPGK
light: B1 light
Kd (human-CD40 monomer [1]): 2.8 nM | koff (human-CD40 monomer [1]): 0.00022 s⁻¹ | kon (human-CD40 monomer [1]): 80000 M⁻¹ s⁻¹ | binding result (hCD64-His): binds

B3: 5F11-45-P238K (antibody, human IgG1, kappa)
heavy: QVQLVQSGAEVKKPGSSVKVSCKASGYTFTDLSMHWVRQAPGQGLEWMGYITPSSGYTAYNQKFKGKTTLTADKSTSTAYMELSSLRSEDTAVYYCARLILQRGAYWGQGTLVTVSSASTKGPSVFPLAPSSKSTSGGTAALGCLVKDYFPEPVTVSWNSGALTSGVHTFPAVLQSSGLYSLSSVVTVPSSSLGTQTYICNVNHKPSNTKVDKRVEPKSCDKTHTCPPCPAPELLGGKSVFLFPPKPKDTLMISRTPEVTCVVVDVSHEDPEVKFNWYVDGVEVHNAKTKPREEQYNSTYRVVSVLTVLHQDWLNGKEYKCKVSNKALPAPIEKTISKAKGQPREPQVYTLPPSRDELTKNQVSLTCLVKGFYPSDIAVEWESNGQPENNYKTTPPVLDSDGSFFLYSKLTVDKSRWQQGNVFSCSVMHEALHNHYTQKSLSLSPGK
light: B1 light
Kd (human-CD40 monomer [1]): 3.3 nM | koff (human-CD40 monomer [1]): 0.00027 s⁻¹ | kon (human-CD40 monomer [1]): 79000 M⁻¹ s⁻¹ | binding result (hCD64-His): binds | IC50 for inhibition of proliferation of B cells, CD40L Trimer [2]: 10 ng/mL

B4: BI-mAb-B (antibody, human IgG1, kappa, L234A L235A, V domains shown)
VH: EVQLVESGGGLVKPGGSLRLSCAASGFTFSDYGMHWVRQAPGKGLEWVAYISSGNRIIYYADTVKGRFTISRDNAKNSLYLQMNSLRAEDTAVYYCARQDGYRYAMDYWGQGTLVTVSS
VL: DIVMTQSPDSLAVSLGEKVTINCKSSQSLLNSGNQKNYLTWHQQKPGQPPKLLIYWTSTRESGVPDRFSGSGSGTDFTLTISSLQAEDVAVYYCQNDYTYPLTFGGGTKVEIKR
notes: Comparator anti-CD40 antibody; also called Antibody B (U.S. Pat. No. 9,090,696)
IC50 for inhibition of proliferation of B cells, CD40L Trimer [2]: 7.4 ng/mL | Kd (human-CD40 monomer [3]): 35 nM | koff (human-CD40 monomer [3]): 0.0021 s⁻¹ | kon (human-CD40 monomer [3]): 61000 M⁻¹ s⁻¹

B5: Y1238-hz2-N297A (antibody, human IgG1, kappa, N297A)
heavy: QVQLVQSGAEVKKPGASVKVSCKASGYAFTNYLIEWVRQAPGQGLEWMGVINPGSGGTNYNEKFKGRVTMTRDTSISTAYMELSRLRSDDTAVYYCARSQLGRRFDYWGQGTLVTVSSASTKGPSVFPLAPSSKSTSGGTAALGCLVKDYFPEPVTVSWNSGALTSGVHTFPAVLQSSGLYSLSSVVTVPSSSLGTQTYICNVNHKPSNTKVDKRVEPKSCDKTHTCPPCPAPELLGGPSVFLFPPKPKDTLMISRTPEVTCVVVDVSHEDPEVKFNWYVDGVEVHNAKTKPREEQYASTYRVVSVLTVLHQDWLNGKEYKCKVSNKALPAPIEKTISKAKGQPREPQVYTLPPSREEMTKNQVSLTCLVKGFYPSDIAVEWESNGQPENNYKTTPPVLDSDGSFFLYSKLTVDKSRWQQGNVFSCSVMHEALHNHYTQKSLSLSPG
light: DIQMTQSPSSLSASVGDRVTITCKASQDVRTGVAWYQQKPGKAPKLLIYSASYRNTGVPSRFSGSRSGTDFTFTISSLQPEDIATYYCQQHYSPPYTFGGGTKVEIKRTVAAPSVFIFPPSDEQLKSGTASVVCLLNNFYPREAKVQWKVDNALQSGNSQESVTEQDSKDSTYSLSSTLTLSKADYEKHKVYACEVTHQGLSSPVTKSFNRGEC
notes: Humanized Y1238
IC50 for inhibition of proliferation of B cells, CD40L Trimer [2]: 2.9 ng/mL | IC50 for inhibition of proliferation of B cells, CHO CD40L [2]: 20 ng/mL | Kd (human-CD40 monomer [3]): 6 nM | koff (human-CD40 monomer [3]): 0.0004 s⁻¹ | kon (human-CD40 monomer [3]): 66000 M⁻¹ s⁻¹

B6: Y1238-hz2-P238K (antibody, human IgG1, kappa)
heavy: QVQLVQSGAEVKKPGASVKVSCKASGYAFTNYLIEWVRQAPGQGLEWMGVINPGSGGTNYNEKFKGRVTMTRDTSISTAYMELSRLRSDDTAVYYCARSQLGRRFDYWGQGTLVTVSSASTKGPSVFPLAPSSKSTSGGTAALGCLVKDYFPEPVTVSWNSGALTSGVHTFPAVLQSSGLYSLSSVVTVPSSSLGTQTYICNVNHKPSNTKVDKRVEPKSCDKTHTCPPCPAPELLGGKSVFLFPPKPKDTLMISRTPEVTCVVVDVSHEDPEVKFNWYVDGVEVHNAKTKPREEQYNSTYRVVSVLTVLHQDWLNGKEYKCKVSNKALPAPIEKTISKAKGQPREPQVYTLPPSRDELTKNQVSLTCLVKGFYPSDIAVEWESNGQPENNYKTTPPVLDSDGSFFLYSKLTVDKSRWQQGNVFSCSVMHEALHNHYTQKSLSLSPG
light: B5 light
notes: Humanized Y1238
IC50 for inhibition of proliferation of B cells, CD40L Trimer [2]: 2.7 ng/mL | IC50 for inhibition of proliferation of B cells, CHO CD40L [2]: 21 ng/mL | Kd (human-CD40 monomer [3]): 6.2 nM | koff (human-CD40 monomer [3]): 0.00043 s⁻¹ | kon (human-CD40 monomer [3]): 70000 M⁻¹ s⁻¹

B7: Y1238-IgG1.3f (antibody)
heavy: QVQLQQSGAELVRPGTSVKVSCKASGYAFTNYLIEWVKQRPGQGLEWIGVINPGSGGTNYNEKFKGKATLTADKSSSTAYMQLSSLTSDDSAVYFCARSQLGRRFDYWGQGTTLTVSSASTKGPSVFPLAPSSKSTSGGTAALGCLVKDYFPEPVTVSWNSGALTSGVHTFPAVLQSSGLYSLSSVVTVPSSSLGTQTYICNVNHKPSNTKVDKRVEPKSCDKTHTCPPCPAPEAEGAPSVFLFPPKPKDTLMISRTPEVTCVVVDVSHEDPEVKFNWYVDGVEVHNAKTKPREEQYNSTYRVVSVLTVLHQDWLNGKEYKCKVSNKALPAPIEKTISKAKGQPREPQVYTLPPSREEMTKNQVSLTCLVKGFYPSDIAVEWESNGQPENNYKTTPPVLDSDGSFFLYSKLTVDKSRWQQGNVFSCSVMHEALHNHYTQKSLSLSPGK
light: DIVMTQSHKFMSTSVGDRVSITCKASQDVRTGVAWYQQKPGQSPKLLIYSASYRNTGVPDRFTGSRSGTDFTFTISSVQAEDLAVYYCQQHYSPPYTFGGGTKLEIKRTVAAPSVFIFPPSDEQLKSGTASVVCLLNNFYPREAKVQWKVDNALQSGNSQESVTEQDSKDSTYSLSSTLTLSKADYEKHKVYACEVTHQGLSSPVTKSFNRGEC
notes: Chimeric mouse/human anti-human CD40; also called Y1238-hIgG1.3f; chimeric Y1238 IgG1.3f
Kd (human-CD40 monomer [4]): 2.1 nM | koff (human-CD40 monomer [4]): 0.00021 s⁻¹ | kon (human-CD40 monomer [4]): 100000 M⁻¹ s⁻¹

B8: Y1238 (antibody, V domains shown)
VH: QVQLQQSGAELVRPGTSVKVSCKASGYAFTNYLIEWVKQRPGQGLEWIGVINPGSGGTNYNEKFKGKATLTADKSSSTAYMQLSSLTSDDSAVYFCARSQLGRRFDYWGQGTTLTVSS
VL: DIVMTQSHKFMSTSVGDRVSITCKASQDVRTGVAWYQQKPGQSPKLLIYSASYRNTGVPDRFTGSRSGTDFTFTISSVQAEDLAVYYCQQHYSPPYTFGGGTKLEIK
IC50 for inhibition of proliferation of B cells, CD40L Trimer [2]: 3.4 ng/mL | IC50 for inhibition of proliferation of B cells, CHO CD40L [2]: 19.9 ng/mL

B9: purified Y1238-chimeric IgG1 antibody (antibody)
VH: B8 VH
light: B7 light
notes: Called IgG1; also called Y1238-IgG1; chimeric, purified
Kd (human-CD40 monomer [5]): 6.7 nM and 6.9 nM and 8.6 nM | koff (human-CD40 monomer [5]): 0.00038 s⁻¹ and 0.0004 s⁻¹ and 0.0005 s⁻¹ | kon (human-CD40 monomer [5]): 56000 M⁻¹ s⁻¹ and 59000 M⁻¹ s⁻¹ and 58000 M⁻¹ s⁻¹ | Kd (human-CD40 monomer [6]): 3.2 nM | koff (human-CD40 monomer [6]): 0.00027 s⁻¹ | kon (human-CD40 monomer [6]): 83000 M⁻¹ s⁻¹

B10: chimeric Y1238 supernatant (Sup 56; HC-Chim / LC-Chim) (antibody)
VH: B8 VH
light: B7 light
notes: Tested as expression supernatant
Kd (human-CD40 monomer [5]): 5.6 nM | koff (human-CD40 monomer [5]): 0.00032 s⁻¹ | kon (human-CD40 monomer [5]): 57000 M⁻¹ s⁻¹ | Kd (human-CD40 monomer [6]): 2.6 nM | koff (human-CD40 monomer [6]): 0.00022 s⁻¹ | kon (human-CD40 monomer [6]): 86000 M⁻¹ s⁻¹

B11: humanized Y1238 hz1 (hz-HC1 / hz-LC1), IgG1.3f (antibody, V domains shown)
VH: QVQLVQSGAEVKKPGASVKVSCKASGYAFTNYLIEWVRQAPGQGLEWMGVINPGSGGTNYNEKFKGRVTMTRDTSISTAYMELSRLRSDDTAVYYCARSQLGRRFDYWGQGTLVTVSS
VL: DIQMTQSPSSLSASVGDRVTITCKASQDVRTGVAWYQQKPGKAPKLLIYSASYRNTGVPSRFSGSGSGTDFTFTISSLQPEDIATYYCQQHYSPPYTFGGGTKVEIK
notes: IgG1.3f heavy constant, common CL; expression supernatant; also called Sup 1
Kd (human-CD40 monomer [5]): 4.2 nM | koff (human-CD40 monomer [5]): 0.0002 s⁻¹ | kon (human-CD40 monomer [5]): 48000 M⁻¹ s⁻¹ | Kd (human-CD40 monomer [6]): 3 nM | koff (human-CD40 monomer [6]): 0.00019 s⁻¹ | kon (human-CD40 monomer [6]): 65000 M⁻¹ s⁻¹
